Laboratory results published in patent publication US20100004432, “APTAMER AGAINST MIDKINE AND USE THEREOF” (RIBOMIC INC., published 2010).

T1: midkine (full-length) (Homo sapiens, UniProt P21741 P21741:23-143)
T1 sequence: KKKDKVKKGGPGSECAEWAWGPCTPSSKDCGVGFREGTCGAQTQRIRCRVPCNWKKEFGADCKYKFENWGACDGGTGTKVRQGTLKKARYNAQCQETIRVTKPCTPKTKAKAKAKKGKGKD

B1: SEQ ID NO:45-4 (ssRNA)
RNA: GGGAGAGGAGAAGAGGAAGUGCACAGGGGUUGGUGUCGGGUGCAC
modifications: 2'-F pyrimidines; 2'-OMe all A in 5' single-stranded part and A, G in end stem: gu(F)g(M)c(F)a(M)c(F) and u(F)g(M)c(F)a(M)c(F)

How the values were obtained:
midkine (full-length) [1] = target: T1, midkine (full-length); test: cell_activity; conditions: 500 nM; control
midkine (full-length) [2] = target: T1, midkine (full-length); test: cell_activity; UMR106 migration inhibition, 500 nM RNA; conditions: tags: expressed in yeast

Row | Molecule | activity (% of SEQ 40 inhibition) (midkine (full-length) [1]) | activity (midkine (full-length) [2])
1 | tRNA | 28 | 
2 | B1 |  | 100 % of SEQ ID NO:40
